From PMC10681739, “High-throughput data and modeling reveal insights into the mechanisms of cooperative DNA-binding by transcription factor proteins”

B1: Table S2 C row 181 (dsDNA)
DNA 1: CACAGGCAGTTCCAGACCGCAGCCTTCCAGGGCCCT
DNA 2: AGGGCCCTGGAAGGCTGCGGTCTGGAACTGCCTGTG
B2: Table S2 C row 72 (dsDNA)
DNA 1: ACTACCTTCTTGGTAACCACAAGTCTCAGAGGTACT
DNA 2: AGTACCTCTGAGACTTGTGGTTACCAAGAAGGTAGT
B3: Table S2 C row 88 (dsDNA)
DNA 1: TGAGGCTCAGTGCTGACCACATTCAAATGACTAGAC
DNA 2: GTCTAGTCATTTGAATGTGGTCAGCACTGAGCCTCA
B4: Table S2 C row 14 (dsDNA)
DNA 1: CTTGCCTAAGACATGCCCACAGCTGCACAGATAAGA
DNA 2: TCTTATCTGTGCAGCTGTGGGCATGTCTTAGGCAAG
B5: Table S2 C row 74 (dsDNA)
DNA 1: GTTAAAACAAAGCAAGCCACAGTGTGTGTCCACAGA
DNA 2: TCTGTGGACACACACTGTGGCTTGCTTTGTTTTAAC
B6: Table S2 C row 158 (dsDNA)
DNA 1: AGGTATTAAACAGCAACCGCATTGCCAAGCACTGTG
DNA 2: CACAGTGCTTGGCAATGCGGTTGCTGTTTAATACCT
B7: Table S2 C row 58 (dsDNA)
DNA 1: CATCTGCAGACACTGTGTGGTTTCCAGGTTCCCGAG
DNA 2: CTCGGGAACCTGGAAACCACACAGTGTCTGCAGATG
B8: Table S2 C row 69 (dsDNA)
DNA 1: CTGGCAAAGCAGAAGTGTGGTTTCAGAGTCTCCCTC
DNA 2: GAGGGAGACTCTGAAACCACACTTCTGCTTTGCCAG
B9: Table S2 B row 1578 (dsDNA)
DNA 1: GGCTTCCTGCCCAACTACCAAGAAAAAGTCACAAAG
DNA 2: CTTTGTGACTTTTTCTTGGTAGTTGGGCAGGAAGCC
B10: Table S2 C row 32 (dsDNA)
DNA 1: TAGTTGTATGTGGAAACCACAAAACTGAGTCATAAA
DNA 2: TTTATGACTCAGTTTTGTGGTTTCCACATACAACTA
B11: Table S2 C row 175 (dsDNA)
DNA 1: CATCTCAAAGCCTCCTGTGGGTGGAGATGGAATGTG
DNA 2: CACATTCCATCTCCACCCACAGGAGGCTTTGAGATG
B12: Table S2 C row 100 (dsDNA)
DNA 1: AGATGAATCACAGAGACCACACATGGAGACCCATCT
DNA 2: AGATGGGTCTCCATGTGTGGTCTCTGTGATTCATCT
B13: Table S2 C row 133 (dsDNA)
DNA 1: TTGTAGGGATGACTGACCACAAAAGACAGTGACTCA
DNA 2: TGAGTCACTGTCTTTTGTGGTCAGTCATCCCTACAA
B14: Table S2 C row 115 (dsDNA)
DNA 1: TGGGGCTTCTCGTTGGCCACAAGTTCAATTTGAGCC
DNA 2: GGCTCAAATTGAACTTGTGGCCAACGAGAAGCCCCA
B15: Table S2 C row 123 (dsDNA)
DNA 1: ATGCAGAAGGAATGCTGTGGTAGACAGCATTCCTTT
DNA 2: AAAGGAATGCTGTCTACCACAGCATTCCTTCTGCAT
B16: Table S2 C row 159 (dsDNA)
DNA 1: GGAGAGGAGAAAATGCCCACAGGGTACATGGAAAGC
DNA 2: GCTTTCCATGTACCCTGTGGGCATTTTCTCCTCTCC
B17: Table S2 B row 665 (dsDNA)
DNA 1: CTCCGTGCCACTACAGCCACTTCCTGCCTTGAAAAC
DNA 2: GTTTTCAAGGCAGGAAGTGGCTGTAGTGGCACGGAG
B18: Table S2 C row 46 (dsDNA)
DNA 1: GGTTTACAGCTCATTTGCGGCAGAATCAAAATGGCT
DNA 2: AGCCATTTTGATTCTGCCGCAAATGAGCTGTAAACC
B19: Table S2 C row 107 (dsDNA)
DNA 1: TGGCTGAGGGTCTTCTGTGGGTGGACGCATGATTAA
DNA 2: TTAATCATGCGTCCACCCACAGAAGACCCTCAGCCA
B20: Table S2 C row 2 (dsDNA)
DNA 1: GTGATGCCGACAGGCCGTGGTTTCTGAGAAACACCA
DNA 2: TGGTGTTTCTCAGAAACCACGGCCTGTCGGCATCAC
B21: Table S2 C row 23 (dsDNA)
DNA 1: GCTTTGCACAGCTTTGCCACAAAGCCCAGTCTGTGT
DNA 2: ACACAGACTGGGCTTTGTGGCAAAGCTGTGCAAAGC
B22: Table S2 C row 155 (dsDNA)
DNA 1: CTCTTTGGCCTTGTCTGTGGTTCTACCAAATCCCAT
DNA 2: ATGGGATTTGGTAGAACCACAGACAAGGCCAAAGAG
B23: Table S2 C row 149 (dsDNA)
DNA 1: TTGGCTTCGGTTCTAACCTCAGAGACTTCTCTAAAT
DNA 2: ATTTAGAGAAGTCTCTGAGGTTAGAACCGAAGCCAA
B24: Table S2 C row 134 (dsDNA)
DNA 1: AAGTCTACAGCTCTTTGAGGTTCATGTGTGACTCTA
DNA 2: TAGAGTCACACATGAACCTCAAAGAGCTGTAGACTT
B25: Table S2 B row 672 (dsDNA)
DNA 1: GGCTTCCGGCGGGGTACCCTCCTCTGTAGGCGGGGC
DNA 2: GCCCCGCCTACAGAGGAGGGTACCCCGCCGGAAGCC
B26: Table S2 C row 130 (dsDNA)
DNA 1: AATAATAGAGAAGACACCACAGTTGCCATGGTATTA
DNA 2: TAATACCATGGCAACTGTGGTGTCTTCTCTATTATT
B27: Table S2 C row 136 (dsDNA)
DNA 1: CAAATGAGGTGCCAAGCCACAAAAAGCATTTGCGTC
DNA 2: GACGCAAATGCTTTTTGTGGCTTGGCACCTCATTTG
B28: Table S2 C row 60 (dsDNA)
DNA 1: AGACTCAGGTGGTAAACCGCAGGCCATTTACATACC
DNA 2: GGTATGTAAATGGCCTGCGGTTTACCACCTGAGTCT
B29: Table S2 C row 48 (dsDNA)
DNA 1: TTCAGAGTCAGATCTACCACACACAGCCCAGGAGCC
DNA 2: GGCTCCTGGGCTGTGTGTGGTAGATCTGACTCTGAA
B30: Table S2 C row 20 (dsDNA)
DNA 1: TCTCCTCTGAGGGCCTGTGGGCAATGAGCAGAAAAG
DNA 2: CTTTTCTGCTCATTGCCCACAGGCCCTCAGAGGAGA
B31: Table S2 C row 85 (dsDNA)
DNA 1: TGTAATCTTTCTTAATGTGGTTAAATTCAAGTTATT
DNA 2: AATAACTTGAATTTAACCACATTAAGAAAGATTACA
B32: Table S2 C row 13 (dsDNA)
DNA 1: AACTCACTAGTGTTTTGAGGTTTTAATTGACACCAC
DNA 2: GTGGTGTCAATTAAAACCTCAAAACACTAGTGAGTT
B33: Table S2 C row 112 (dsDNA)
DNA 1: ACTGTCAAACATTCGACCACAATCTCTGAGGCTGGG
DNA 2: CCCAGCCTCAGAGATTGTGGTCGAATGTTTGACAGT
B34: Table S2 C row 6 (dsDNA)
DNA 1: TAAGCCCCGCGTGCCTGTGGGTATTTGAAAGCTGAA
DNA 2: TTCAGCTTTCAAATACCCACAGGCACGCGGGGCTTA
B35: Table S2 B row 1078 (dsDNA)
DNA 1: TGCAGCTTCCTGTCTGAGGCTTTTTGGTCCTTTCAT
DNA 2: ATGAAAGGACCAAAAAGCCTCAGACAGGAAGCTGCA
B36: Table S2 C row 47 (dsDNA)
DNA 1: CCTACAAATTCCAGCTGTGGTCAGCTGGTGAGCTCT
DNA 2: AGAGCTCACCAGCTGACCACAGCTGGAATTTGTAGG
B37: Table S2 C row 93 (dsDNA)
DNA 1: ATGCTGTCAAAAACTACCACAGACTGATTGGCTTAA
DNA 2: TTAAGCCAATCAGTCTGTGGTAGTTTTTGACAGCAT
B38: Table S2 C row 197 (dsDNA)
DNA 1: TTGAACTTAGTAGCAACCACACATGGCCATTATTTG
DNA 2: CAAATAATGGCCATGTGTGGTTGCTACTAAGTTCAA
B39: Table S2 C row 33 (dsDNA)
DNA 1: ATCTCAGTTAAGCAGACCACACTTTACGTTCTAGTT
DNA 2: AACTAGAACGTAAAGTGTGGTCTGCTTAACTGAGAT
B40: Table S2 C row 125 (dsDNA)
DNA 1: CATTTCAGTAGACTCACCACAAGGTTGTGGCCAGAA
DNA 2: TTCTGGCCACAACCTTGTGGTGAGTCTACTGAAATG
B41: Table S2 C row 128 (dsDNA)
DNA 1: AAGATATGGGCTACTTGTGGTTTACTCTGTCTGCTA
DNA 2: TAGCAGACAGAGTAAACCACAAGTAGCCCATATCTT
B42: Table S2 C row 192 (dsDNA)
DNA 1: CAAGGTGGCAGTGATTGTGGCCGGCCACCTATCTGA
DNA 2: TCAGATAGGTGGCCGGCCACAATCACTGCCACCTTG

Biological target: T1, ETS1 (Homo sapiens, UniProt P14921)
T1 sequence: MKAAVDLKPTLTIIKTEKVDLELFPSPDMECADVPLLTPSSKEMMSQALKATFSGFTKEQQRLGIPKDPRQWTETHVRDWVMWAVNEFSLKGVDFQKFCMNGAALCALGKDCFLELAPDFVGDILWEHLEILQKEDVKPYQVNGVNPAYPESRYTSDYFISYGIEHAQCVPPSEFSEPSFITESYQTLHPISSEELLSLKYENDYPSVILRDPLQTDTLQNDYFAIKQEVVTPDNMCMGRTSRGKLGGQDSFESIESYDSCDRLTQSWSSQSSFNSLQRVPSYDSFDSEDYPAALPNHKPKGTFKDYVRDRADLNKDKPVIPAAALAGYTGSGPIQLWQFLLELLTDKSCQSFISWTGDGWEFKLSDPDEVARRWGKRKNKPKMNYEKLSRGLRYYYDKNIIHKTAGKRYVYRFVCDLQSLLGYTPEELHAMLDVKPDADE
Assay: gcPBM; 1 nM ETS1
Conditions: tags: N-terminal GST (pDEST15), kept (PMC6008103); label: surface-attached array probe

Binder | binding signal
B1 | 391 PBM fluorescence, median of replicate spots
B2 | 394 PBM fluorescence, median of replicate spots
B3 | 389 PBM fluorescence, median of replicate spots
B4 | 383 PBM fluorescence, median of replicate spots
B5 | 382 PBM fluorescence, median of replicate spots
B6 | 391 PBM fluorescence, median of replicate spots
B7 | 406 PBM fluorescence, median of replicate spots
B8 | 405 PBM fluorescence, median of replicate spots
B9 | 12500 PBM fluorescence, median of replicate spots
B10 | 395 PBM fluorescence, median of replicate spots
B11 | 414 PBM fluorescence, median of replicate spots
B12 | 403 PBM fluorescence, median of replicate spots
B13 | 398 PBM fluorescence, median of replicate spots
B14 | 381 PBM fluorescence, median of replicate spots
B15 | 407 PBM fluorescence, median of replicate spots
B16 | 409 PBM fluorescence, median of replicate spots
B17 | 13300 PBM fluorescence, median of replicate spots
B18 | 392 PBM fluorescence, median of replicate spots
B19 | 417 PBM fluorescence, median of replicate spots
B20 | 392 PBM fluorescence, median of replicate spots
B21 | 399 PBM fluorescence, median of replicate spots

Binder | binding signal
B22 | 414 PBM fluorescence, median of replicate spots
B23 | 389 PBM fluorescence, median of replicate spots
B24 | 394 PBM fluorescence, median of replicate spots
B25 | 13700 PBM fluorescence, median of replicate spots
B26 | 414 PBM fluorescence, median of replicate spots
B27 | 388 PBM fluorescence, median of replicate spots
B28 | 408 PBM fluorescence, median of replicate spots
B29 | 393 PBM fluorescence, median of replicate spots
B30 | 389 PBM fluorescence, median of replicate spots
B31 | 407 PBM fluorescence, median of replicate spots
B32 | 420 PBM fluorescence, median of replicate spots
B33 | 409 PBM fluorescence, median of replicate spots
B34 | 385 PBM fluorescence, median of replicate spots
B35 | 12900 PBM fluorescence, median of replicate spots
B36 | 408 PBM fluorescence, median of replicate spots
B37 | 399 PBM fluorescence, median of replicate spots
B38 | 416 PBM fluorescence, median of replicate spots
B39 | 393 PBM fluorescence, median of replicate spots
B40 | 399 PBM fluorescence, median of replicate spots
B41 | 392 PBM fluorescence, median of replicate spots
B42 | 408 PBM fluorescence, median of replicate spots
